Experiments:
[1] = biological target: T1, microtubules polymerised from porcine brain tubulin (GMPCPP-stabilised seeds, dynamic GDP lattice, or … (porcine, UniProt P02550 1-451, part of the tubulin labelled with Rhodamine or HiLyte 647)); part biotinylated (surface-immobilised microtubules) | part of the tubulin labelled with Rhodamine or HiLyte 647; part biotinylated …); assay: FRAP, microtubule-microtubule overlap (median)
[2] = biological target: T1, microtubules polymerised from porcine …; assay: FRAP, actin-microtubule overlap (median), with actin filaments

T1 sequence (P02550 whole entry, chain 1 of 2): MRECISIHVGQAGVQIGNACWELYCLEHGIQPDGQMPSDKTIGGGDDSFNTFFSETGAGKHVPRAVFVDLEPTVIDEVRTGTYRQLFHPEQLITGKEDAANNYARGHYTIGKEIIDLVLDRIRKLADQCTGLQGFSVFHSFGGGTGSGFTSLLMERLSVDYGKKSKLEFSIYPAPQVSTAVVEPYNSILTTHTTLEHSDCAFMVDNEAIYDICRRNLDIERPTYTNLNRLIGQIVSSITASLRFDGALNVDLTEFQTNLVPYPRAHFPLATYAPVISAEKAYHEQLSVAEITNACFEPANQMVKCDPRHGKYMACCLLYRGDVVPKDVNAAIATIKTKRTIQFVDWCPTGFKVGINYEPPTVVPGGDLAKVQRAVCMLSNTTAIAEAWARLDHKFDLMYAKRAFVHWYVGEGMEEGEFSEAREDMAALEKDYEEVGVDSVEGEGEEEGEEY
T1 sequence (chain, as listed by the source, chain 2 of 2): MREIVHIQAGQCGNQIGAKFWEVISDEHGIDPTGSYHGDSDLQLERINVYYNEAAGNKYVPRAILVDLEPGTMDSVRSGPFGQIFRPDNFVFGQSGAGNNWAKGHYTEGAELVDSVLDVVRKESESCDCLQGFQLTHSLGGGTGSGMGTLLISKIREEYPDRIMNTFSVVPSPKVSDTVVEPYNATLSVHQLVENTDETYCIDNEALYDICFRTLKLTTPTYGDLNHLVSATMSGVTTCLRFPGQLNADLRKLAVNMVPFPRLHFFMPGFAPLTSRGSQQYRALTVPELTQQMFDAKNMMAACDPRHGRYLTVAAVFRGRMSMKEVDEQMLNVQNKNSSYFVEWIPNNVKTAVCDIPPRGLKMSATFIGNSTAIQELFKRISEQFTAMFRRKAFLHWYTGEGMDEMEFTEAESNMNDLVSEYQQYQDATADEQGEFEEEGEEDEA

B1: Anillin-GFP (full-length human anillin, isoform 2, 1087 amino acids) (natural protein)
chain: MDPFTEKLLERTRARRENLQRKMAERPTAAPRSMTHAKRARQPLSEASNQQPLSGGEEKSCTKPSPSKKRCSDNTEVEVSNLENKQPVESTSAKSCSPSPVSPQVQPQAADTISDSVAVPASLLGMRRGLNSRLEATAASSVKTRMQKLAEQRRRWDNDDMTDDIPESSLFSPMPSEEKAASPPRPLLSNASATPVGRRGRLANLAATICSWEDDVNHSFAKQNSVQEQPGTACLSKFSSASGASARINSSSVKQEATFCSQRDGDASLNKALSSSADDASLVNASISSSVKATSPVKSTTSITDAKSCEGQNPELLPKTPISPLKTGVSKPIVKSTLSQTVPSKGELSREICLQSQSKDKSTTPGGTGIKPFLERFGERCQEHSKESPARSTPHRTPIITPNTKAIQERLFKQDTSSSTTHLAQQLKQERQKELACLRGRFDKGNIWSAEKGGNSKSKQLETKQETHCQSTPLKKHQGVSKTQSLPVTEKVTENQIPAKNSSTEPKEVIREIEMSVDDDDINSSKVINDLFSDVLEEGELDMEKSQEEMDQALAESSEEQEDALNISSMSLLAPLAQTVGVVSPESLVSTPRLELKDTSRSDESPKPGKFQRTRVPRAESGDSLGSEDRDLLYSIDAYRSQRFKETERPSIKQVIVRKEDVTSKLDEKNNAFPCQVNIKQKMQELNNEINMQQTVIYQASQALNCCVDEEHGKGSLEEAEAERLLLIATGKRTLLIDELNKLKNEGPQRKNKASPQSEFMPSKGSVTLSEIRLPLKADFVCSTVQKPDAANYYYLIILKAGAENMVATPLASTSNSLNGDALTFTTTFTLQDVSNDFEINIEVYSLVQKKDPSGLDKKKKTSKSKAITPKRLLTSITTKSNIHSSVMASPGGLSAVRTSNFALVGSYTLSLSSVGNTKFVLDKVPFLSSLEGHIYLKIKCQVNSSVEERGFLTIFEDVSGFGAWHRRWCVLSGNCISYWTYPDDEKRKNPIGRINLANCTSRQIEPANREFCARRNTFELITVRPQREDDRETLVSQCRDTLCVTKNWLSADTKEERDLWMQKLNQVLVDIRLWQPDACYKPIGKP
- koff [1]: 0.29 s⁻¹
- koff [2]: 0.513 s⁻¹

— article PMC12402178 (2025)
